This is an account of results in patent US20230295271A1 (UNIVERSITY OF SOUTHERN CALIFORNIA, published 2023).

Assay [1] has as its target T1, human Glucagon-like peptide-1 receptor (GLP-1R), purified His6-tagged protein (human, UniProt P43220 24-463, limits assumed).
T1 construct: Recombinant human His6-tagged GLP-1R purified from Sf9 biomass and immobilised on the plate for ELISA; also called purified GLP-1R protein
In words: titration ELISA, GLP-1R coated on the plate, purified scFv titrated; apparent Kd.

Assay [2] deals with T1, human Glucagon-like peptide-1 receptor …. In words: titration ELISA, apparent Kd compared with the parental scFv. (In an ELISA, binding on a coated surface is turned into a signal by an enzyme label.)
In assay [3] the target is T2, recombinant mouse artemin protein (Ala112-Gly224 fragment) (mouse, UniProt Q9Z0L2 112-224).
T2 construct: range 112-224; Bought as lyophilized powder from R&D Systems
T2 sequence (looked up): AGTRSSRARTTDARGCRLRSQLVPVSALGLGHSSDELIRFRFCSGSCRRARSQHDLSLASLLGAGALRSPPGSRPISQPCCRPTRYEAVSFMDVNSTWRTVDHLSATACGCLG
In words: SPR (Biacore T100), purified VHH and mouse artemin, 1:1 model. How it is done: (§1) In some cases, scFv/VHH were further purified by gel filtration using Superdex 75 column (GE Healthcare). Proteins were concentrated using Amicon Ultra-15 10 kDa centrifugal filter unit (Millipore) and stored in PBS at −70° C. Titration ELISA. Titration ELISA was used to measure binding of purified scFv to GLP-1R. GLP-1R immobilization in a 96 well plate and blocking was carried out as described for phage ELISA. A purified scFv was prepared at varying concentrations (from 1 nM to 3 μM) in 2% MPBS. 100 μl scFv aliquot of each concentration was added to a well and incubated at RT for 1.5 h. The plate was then washed with TPBS and PBS three times each. Primary anti His-tag Mouse mAb (Cell signaling Technology, Inc.) was diluted 1:250 in 2% MPBS and added into each well. […] The absorbance was read at 450 nm, using SpectraMax iD5 microplate reader (Molecular Devices, LLC). The dissociation constant Kd was calculated according to a published protocol. […] Binding of purified VHH nanobodies to Artemin and to untagged FAAH proteins was determined using Biacore T100 instrument (GE Healthcare). […] Kinetic constants for binding interaction were determined by fitting the sensorgrams with 1:1 binding model using Biacore T100 evaluation software, version 2.0 (GE healthcare).
(In general: Surface plasmon resonance follows binding to a sensor surface in real time, without labels.)

Assay [4] concerns the target T3, human fatty acid amide hydrolase (FAAH), amino acids 30-579 (human, UniProt O00519 30-579).
T3 construct: range 30-579; Expressed in E. coli as an MBP fusion; The MBP tag was cleaved with Factor Xa, and SPR used the untagged FAAH; also called untagged FAAH; purified human FAAH protein
T3 sequence (looked up): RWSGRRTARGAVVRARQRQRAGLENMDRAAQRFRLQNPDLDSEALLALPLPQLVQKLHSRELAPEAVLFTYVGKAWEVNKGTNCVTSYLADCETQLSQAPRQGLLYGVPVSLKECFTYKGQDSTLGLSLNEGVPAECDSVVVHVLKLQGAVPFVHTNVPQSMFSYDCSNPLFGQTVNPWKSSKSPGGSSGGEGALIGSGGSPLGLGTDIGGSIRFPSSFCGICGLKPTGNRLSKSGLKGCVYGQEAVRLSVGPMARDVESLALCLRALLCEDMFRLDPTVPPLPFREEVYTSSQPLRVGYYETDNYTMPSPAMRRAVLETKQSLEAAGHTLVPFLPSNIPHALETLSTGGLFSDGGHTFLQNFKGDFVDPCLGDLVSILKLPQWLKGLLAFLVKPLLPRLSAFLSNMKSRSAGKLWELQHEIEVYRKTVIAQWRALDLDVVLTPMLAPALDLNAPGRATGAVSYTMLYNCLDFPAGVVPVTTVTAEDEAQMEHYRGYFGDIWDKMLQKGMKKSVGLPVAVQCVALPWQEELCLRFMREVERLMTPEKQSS
The assay can be described thus: SPR (Biacore T100), purified VHH and untagged FAAH, 1:1 model. How it is done:
as §1

The target in assay [5] is T3, human fatty acid amide hydrolase …. In words: SPR (Biacore T100), compared with parent A3 nanobody. How it is done: as §1

B1: GHM33 scFv (scFv)
scFv: VQLVQSGAEVKKPGSSVKVSCKASGGTFSSYAISWVRQAPGQGLEWMGGIIPIFGTANYAQKFQGRVTITADESTSTAYMELSSLRSEDTAVYYCARGRDDYYDSSAFDYWGQGTLVTVGGGGSGGGGSGGGGSGGGGSVLTQPPSVSVAPGQTARVTCGGNKIGSYSVYWYQHKPGQAPVLVVYDDSDRPSGIPERFSGSNSGNMATLTISGVEAGDEADYYCQVWDCTTDDVIFGGGTKLTVLHHHHHH
notes: Purified soluble His6-tagged scFv expressed from pADL-20c in the E. coli periplasm; The printed VH and VL start at the second residue and stop before the end of the J region; also called mutated scFv clone (GHM33); anti-GLP-1R scFv
In the case of B1, the Kd in assay [1] worked out at 100 nM. In addition, the “fold lower Kd than the parental scFv” value in assay [2] is approximately 3 fold.

B2: LM52 VHH nanobody (VHH)
VHH: VQLVESGGGLVQAGASLRLSCAASGGTLVNSSMGWFRQAPGKERDFVATINWRGDTTWYGESVKGRFSISRDNTKNMVYLQMNSLKPEDTAVYYCAVYRTRYYTGRRMMSPDEYDVWGQGTQVTVHH
notes: From the mutagenized llama VHH library; likely a mutant variant of LU5
Take B2: the Kd in assay [3] was 102 nM.

B3: OD1 VHH nanobody (VHH)
VHH: VQLVESGGGLVQAGGSLRLSCAASGRTFSDNTMAWHRQGPGKQRGLVAFITTGGRTVYTDSVKGRFIISRDNAKNTGFLQMNSLKPEDTAVYYCYVAGNWGQGTQVTVHH
notes: Purified soluble His6-tagged llama VHH; also called mutated VHH clone (OD1)
Turning to B3, the Kd in assay [4] was determined as 0.65 nM. Further, the “fold increase in FAAH affinity compared to parent VHH A3” value in assay [5] is approximately 2.4 fold.
